What was measured:
[1] = molecular target: A2AR-Nluc-spacer (human adenosine A2A receptor fused to NanoLuc on the N-terminal end, with spacer) (human, UniProt P29274 1-412); assay: cell-based or functional assay
[2] = molecular target: A2AR (human adenosine A2A receptor, non-fused) (human, UniProt P29274 1-412); assay: cell-based or functional assay
A2AR (human adenosine A2A receptor, non-fused), sequence (P29274 whole entry, the tested form may be a part): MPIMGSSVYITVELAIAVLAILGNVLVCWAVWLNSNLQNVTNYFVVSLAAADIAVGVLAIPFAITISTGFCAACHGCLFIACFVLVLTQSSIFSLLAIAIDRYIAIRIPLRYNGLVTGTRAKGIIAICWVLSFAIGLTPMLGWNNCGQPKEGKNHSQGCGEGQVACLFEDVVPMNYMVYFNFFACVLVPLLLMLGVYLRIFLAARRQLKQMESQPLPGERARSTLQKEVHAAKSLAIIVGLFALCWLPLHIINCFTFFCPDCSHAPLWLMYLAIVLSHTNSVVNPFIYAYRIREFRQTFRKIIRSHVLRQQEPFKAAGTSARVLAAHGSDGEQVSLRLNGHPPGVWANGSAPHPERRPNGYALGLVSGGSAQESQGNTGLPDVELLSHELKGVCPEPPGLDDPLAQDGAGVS

A2AR-Nluc-spacer (human adenosine A2A receptor fused to NanoLuc on the N-terminal end, with spacer), sequence (P29274 whole entry, the tested form may be a part): as above

EC50: concentration of ADA (0.1 ng/ml to 10 ug/ml) providing half-maximal increase in binding of 2.2 nM [3H]ZM 241385 to membranes of transfected HEK-293T cells [1]: 14 ng/mL | EC50: concentration of ADA (0.1 ng/ml to 10 ug/ml) providing half-maximal increase in binding of 2.2 nM [3H]ZM 241385 to membranes of transfected HEK-293T cells [2]: 4 ng/mL
B1: Bovine adenosine deaminase (ADA) (enzyme, UniProt P56658 1-363, looked up)
chain: MAQTPAFNKPKVELHVHLDGAIKPETILYYGRKRGIALPADTPEELQNIIGMDKPLSLPEFLAKFDYYMPAIAGCREAVKRIAYEFVEMKAKDGVVYVEVRYSPHLLANSKVEPIPWNQAEGDLTPDEVVSLVNQGLQEGERDFGVKVRSILCCMRHQPSWSSEVVELCKKYREQTVVAIDLAGDETIEGSSLFPGHVKAYAEAVKSGVHRTVHAGEVGSANVVKEAVDTLKTERLGHGYHTLEDATLYNRLRQENMHFEVCPWSSYLTGAWKPDTEHPVVRFKNDQVNYSLNTDDPLIFKSTLDTDYQMTKNEMGFTEEEFKRLNINAAKSSFLPEDEKKELLDLLYKAYGMPSPASAEQCL
